Data from CN114634568A (SHENZHEN PHENPENG BIOTHERAPY CO LTD, dated 2022).

How the values were obtained:
[1] = target: T1, hu(人)BCMA ECD His, ACRO, BCA-H522y (human, UniProt Q02223 1-54); test: ELISA, hu BCMA ECD His coated at 2 μg/mL
T1 construct: extracellular domain; Bought reagent; also called hu BCMA ECD His; BCMA抗原; not shown: His tag
T1 sequence (looked up): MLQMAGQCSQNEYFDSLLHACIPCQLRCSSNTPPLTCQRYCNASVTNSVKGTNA

[2] = target: T2, 人BCMA全长 (K562-BCMA细胞株和CHO-BCMA细胞株表面表达) (human, UniProt Q02223 1-184); test: flow cytometry on K562-BCMA and CHO-BCMA cells, APC anti-human IgG Fc
T2 construct: whole, on cells; also called BCMA表达阳性的细胞
T2 sequence (looked up): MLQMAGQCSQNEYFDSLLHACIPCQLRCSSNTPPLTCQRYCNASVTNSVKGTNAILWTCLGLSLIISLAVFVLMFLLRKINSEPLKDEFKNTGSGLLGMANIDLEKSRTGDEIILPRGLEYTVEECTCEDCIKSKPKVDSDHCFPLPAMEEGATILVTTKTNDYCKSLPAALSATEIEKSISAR

h BCMA ECD mFc = target: T3, h BCMA ECD mFc (human, UniProt Q02223 1-54); test: BLI (Fortebio), h BCMA ECD mFc 3 ug/mL loaded on AMC biosensor, antibody in solution
T3 construct: extracellular domain; also called hBCMA-mFc; not shown: mouse Fc (mFc)
T3 sequence (looked up): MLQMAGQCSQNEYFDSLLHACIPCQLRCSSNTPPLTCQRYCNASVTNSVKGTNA

Measured: binding result

B1: 鼠源BCMA抗体 mVH-mVL (CN201911298620.7专利中5E2 BCMA抗体) (antibody, V domains shown)
VH: EVQLQQSGPELIKPGASVKMSCKASGYTFTSYVVHWVKQKPGQGLEWIGYIIPYNDDTKYNEKFKGKATLTSDKSSSTAYMELSSLTSEDSAVYYCARWDYDDGYFDYWGQGTTLTVSS
VL: DVVMTQTPLSLPVTLGDQASISCRSSQSLLHSNGNTYLHWYLQKPGQSPKLLIYKVSNRFSGVPDRFSGSGSGTDFTLKISRVEAEDLGVYFCSQITHIPFTFGSGTKLEIKR
notes: In flow cytometry the detection reagent was APC anti-human IgG Fc
binds: [1] | [2] | h BCMA ECD mFc
